Results: patent US20250382602
Where a chain is given by its changes, count along the chain named.

Experiments:
Settings in all cases: nanopore translocation, FLO-MIN112; background mutations not given
[1] = molecular target: T1, Dda 1993 354A 354A (Enterobacteria phage T4) (UniProt P32270)
T1 sequence: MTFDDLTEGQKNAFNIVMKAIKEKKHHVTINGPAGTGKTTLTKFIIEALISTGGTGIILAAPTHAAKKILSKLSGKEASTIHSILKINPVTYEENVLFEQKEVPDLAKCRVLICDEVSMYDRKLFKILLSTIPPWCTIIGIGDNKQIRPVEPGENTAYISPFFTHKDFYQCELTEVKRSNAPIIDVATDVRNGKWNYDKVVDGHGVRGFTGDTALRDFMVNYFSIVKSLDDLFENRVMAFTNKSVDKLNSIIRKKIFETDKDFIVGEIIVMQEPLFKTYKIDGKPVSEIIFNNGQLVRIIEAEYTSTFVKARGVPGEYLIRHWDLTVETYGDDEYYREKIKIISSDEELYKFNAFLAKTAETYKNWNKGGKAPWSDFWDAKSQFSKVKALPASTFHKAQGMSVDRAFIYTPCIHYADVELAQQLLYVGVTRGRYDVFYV

[2] = molecular target: T2, Dda 1993 K358I K358I (Enterobacteria phage T4) (UniProt P32270)
T2 sequence: T1 sequence with A354L, K358I

[3] = molecular target: T3, Dda 1993 K358E K358E (Enterobacteria phage T4) (UniProt P32270)
T3 sequence: T1 sequence with A354L, K358E

[4] = molecular target: T4, Dda 1993 351Q 351Q (Enterobacteria phage T4) (UniProt P32270)
T4 sequence: T1 sequence with K351Q, A354L

[5] = molecular target: T5, Dda 1993 361I 361I (Enterobacteria phage T4) (UniProt P32270)
T5 sequence: T1 sequence with A354L, E361I

[6] = molecular target: T6, Dda 1993 K358S K358S (Enterobacteria phage T4) (UniProt P32270)
T6 sequence: T1 sequence with A354L, K358S

barcoded 3.6 kb DNA analyte ligated to sequencing Y adaptor
activity (bps speed delta vs control) [1]: 11.3 | activity (bps speed delta vs control) [2]: -5.51 | activity (bps speed delta vs control) [3]: -7.28 | activity (bps speed delta vs control) [4]: -5.61 | activity (bps speed delta vs control) [5]: 21.6 | activity (bps speed delta vs control) [6]: 1.6
